We go through two molecules from paper PMC10711656, “RZZ‐Spindly and CENP‐E form an integrated platform to recruit dynein to the kinetochore corona” (The EMBO Journal, 2023).

The target of assay [1] is T1, ^mChRZZS filaments (mCherry-RZZ with prefarnesylated Spindly, polymerised with GST-MPS1) (UniProt P50748 1-2209; Q9H900 1-591; O43264 1-779; Q96EA4 1-605, incubated with GST-MPS1 (the paper says that MPS1 phosphorylates ROD on Thr13 and Ser15) | farnesylated (prefarnesylated)).
T1 construct: ROD subunit of the ROD-Zwilch-ZW10 (RZZ) complex; Zwilch subunit of the RZZ complex; ZW10 subunit of the RZZ complex; Spindly, dynein-dynactin adaptor; no mCherry is named on the Spindly of the filaments; Filaments formed essentially as described by d'Amico et al (2022); source: mCherry-RZZ: biGBac system, purified as previously described; 4 μM mCherry-RZZ and 8 μM prefarnesylated Spindly …
The experiment in a line: filament-binding assay (fluorescence microscopy); mCherry-RZZS filaments diluted 1:8, EGFP-CENP-E constructs added to 1 μM, flowed into a flow chamber and imaged; M-buffer (50 mM HEPES pH 7.5, 100 mM NaCl, 1 mM MgCl2, 1 mM TCEP). The conditions noted are these: both partners purified.

Assay [2] deals with T2, ^mCHRZZ^mChS rings (mCherry-RZZ with prefarnesylated mCherry-Spindly, polymerised with GST-MPS1) (UniProt P50748 1-2209; Q9H900 1-591; O43264 1-779; Q96EA4 1-605, incubated with GST-MPS1 (the paper says that MPS1 phosphorylates ROD on Thr13 and Ser15) | farnesylated (prefarnesylated)).
T2 construct: ROD subunit of the ROD-Zwilch-ZW10 (RZZ) complex; Zwilch subunit of the RZZ complex; ZW10 subunit of the RZZ complex; Spindly, dynein-dynactin adaptor; Constructs as in Sacristan et al, 2018, Raisch et al, 2022 and d'Amico et al, 2022; also called RZZS minicircles; RZZS rings; source: mCherry-RZZ: biGBac system, purified as previously described; mCherry-Spindly: Tnao38 insect cells, purified; 4 …
Put plainly: TIRF microscopy ring-binding assay; mCherry-RZZ/mCherry-Spindly rings (approximately 40 nM) held on the coverslip by anti-mCherry GST-tagged nanobody; EGFP-CENP-E constructs (10 nM) flowed in; A-buffer (50 mM HEPES pH 8, 200 mM NaCl, 2 mM TCEP, 0.1 mg/ml BSA); room temperature. The conditions noted are these: both partners purified.

T2 sequence (P50748 whole entry, chain 1 of 4): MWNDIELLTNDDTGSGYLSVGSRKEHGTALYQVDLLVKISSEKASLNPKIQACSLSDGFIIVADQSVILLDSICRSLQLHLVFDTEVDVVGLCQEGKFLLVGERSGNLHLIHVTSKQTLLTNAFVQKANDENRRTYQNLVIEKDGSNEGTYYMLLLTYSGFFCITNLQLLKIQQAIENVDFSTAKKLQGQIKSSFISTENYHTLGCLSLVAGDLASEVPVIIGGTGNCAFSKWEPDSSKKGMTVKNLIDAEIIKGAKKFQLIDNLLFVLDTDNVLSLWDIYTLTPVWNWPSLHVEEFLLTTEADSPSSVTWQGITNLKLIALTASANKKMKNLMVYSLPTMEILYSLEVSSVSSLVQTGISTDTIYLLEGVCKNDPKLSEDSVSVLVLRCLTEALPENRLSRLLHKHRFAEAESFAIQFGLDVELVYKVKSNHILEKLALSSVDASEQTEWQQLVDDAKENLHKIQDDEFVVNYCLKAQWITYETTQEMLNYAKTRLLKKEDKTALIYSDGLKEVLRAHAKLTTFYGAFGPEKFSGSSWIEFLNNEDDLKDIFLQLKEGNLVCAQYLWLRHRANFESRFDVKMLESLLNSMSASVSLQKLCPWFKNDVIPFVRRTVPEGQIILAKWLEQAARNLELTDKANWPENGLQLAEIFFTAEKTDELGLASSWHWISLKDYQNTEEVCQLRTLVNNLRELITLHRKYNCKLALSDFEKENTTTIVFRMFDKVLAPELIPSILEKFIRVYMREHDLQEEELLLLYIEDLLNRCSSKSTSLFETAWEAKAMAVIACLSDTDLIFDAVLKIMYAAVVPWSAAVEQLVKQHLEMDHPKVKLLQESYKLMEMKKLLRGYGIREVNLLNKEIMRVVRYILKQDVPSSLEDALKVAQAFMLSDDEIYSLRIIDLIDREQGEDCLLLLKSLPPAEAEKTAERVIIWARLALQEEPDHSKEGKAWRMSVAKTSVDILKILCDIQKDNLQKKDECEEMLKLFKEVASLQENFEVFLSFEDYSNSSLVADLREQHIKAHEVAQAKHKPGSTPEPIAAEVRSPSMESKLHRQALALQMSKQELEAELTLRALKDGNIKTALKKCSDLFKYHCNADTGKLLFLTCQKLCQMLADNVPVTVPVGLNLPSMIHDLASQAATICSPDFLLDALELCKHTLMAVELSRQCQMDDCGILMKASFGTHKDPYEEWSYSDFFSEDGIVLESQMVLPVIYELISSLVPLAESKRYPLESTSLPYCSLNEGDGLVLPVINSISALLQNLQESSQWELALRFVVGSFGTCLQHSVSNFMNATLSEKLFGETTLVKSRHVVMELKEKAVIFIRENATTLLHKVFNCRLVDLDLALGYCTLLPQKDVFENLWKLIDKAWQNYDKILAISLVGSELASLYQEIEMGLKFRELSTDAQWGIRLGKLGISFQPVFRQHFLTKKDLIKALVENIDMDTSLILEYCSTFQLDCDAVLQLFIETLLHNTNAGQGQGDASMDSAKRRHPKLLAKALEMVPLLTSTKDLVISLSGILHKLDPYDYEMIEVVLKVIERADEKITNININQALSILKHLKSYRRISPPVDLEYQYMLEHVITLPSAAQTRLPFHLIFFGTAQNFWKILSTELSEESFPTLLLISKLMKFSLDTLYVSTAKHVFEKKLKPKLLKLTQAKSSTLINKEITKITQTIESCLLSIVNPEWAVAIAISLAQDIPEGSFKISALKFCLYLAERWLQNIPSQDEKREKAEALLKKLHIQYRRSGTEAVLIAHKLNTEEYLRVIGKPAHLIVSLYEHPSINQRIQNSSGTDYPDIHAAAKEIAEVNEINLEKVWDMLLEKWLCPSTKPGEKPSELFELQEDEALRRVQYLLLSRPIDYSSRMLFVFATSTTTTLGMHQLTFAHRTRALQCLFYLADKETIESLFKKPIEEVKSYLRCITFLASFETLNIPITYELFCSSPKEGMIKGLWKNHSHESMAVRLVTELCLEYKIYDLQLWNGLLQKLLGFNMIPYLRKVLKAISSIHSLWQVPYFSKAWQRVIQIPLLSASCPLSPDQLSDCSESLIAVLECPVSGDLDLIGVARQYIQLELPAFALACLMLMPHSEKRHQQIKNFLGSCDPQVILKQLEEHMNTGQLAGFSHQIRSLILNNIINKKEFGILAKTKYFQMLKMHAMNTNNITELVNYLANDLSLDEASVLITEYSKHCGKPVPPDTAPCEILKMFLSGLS
T2 sequence (Q9H900 whole entry, chain 2 of 4): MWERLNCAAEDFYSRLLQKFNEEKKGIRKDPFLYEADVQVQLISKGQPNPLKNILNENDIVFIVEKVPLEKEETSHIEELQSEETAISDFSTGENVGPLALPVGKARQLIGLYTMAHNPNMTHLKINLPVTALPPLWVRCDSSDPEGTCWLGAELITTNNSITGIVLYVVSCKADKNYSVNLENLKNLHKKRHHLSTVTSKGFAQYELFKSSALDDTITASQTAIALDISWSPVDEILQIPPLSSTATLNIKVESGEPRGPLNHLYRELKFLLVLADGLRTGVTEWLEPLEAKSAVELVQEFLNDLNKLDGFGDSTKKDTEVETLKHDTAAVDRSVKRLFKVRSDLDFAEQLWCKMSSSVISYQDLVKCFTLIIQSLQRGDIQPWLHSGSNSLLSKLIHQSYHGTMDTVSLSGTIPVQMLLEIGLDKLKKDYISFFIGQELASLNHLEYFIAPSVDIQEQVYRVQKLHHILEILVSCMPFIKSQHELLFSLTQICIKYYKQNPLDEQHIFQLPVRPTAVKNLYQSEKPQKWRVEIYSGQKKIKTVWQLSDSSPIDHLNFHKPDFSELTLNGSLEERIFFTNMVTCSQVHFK
T2 sequence (O43264 whole entry, chain 3 of 4): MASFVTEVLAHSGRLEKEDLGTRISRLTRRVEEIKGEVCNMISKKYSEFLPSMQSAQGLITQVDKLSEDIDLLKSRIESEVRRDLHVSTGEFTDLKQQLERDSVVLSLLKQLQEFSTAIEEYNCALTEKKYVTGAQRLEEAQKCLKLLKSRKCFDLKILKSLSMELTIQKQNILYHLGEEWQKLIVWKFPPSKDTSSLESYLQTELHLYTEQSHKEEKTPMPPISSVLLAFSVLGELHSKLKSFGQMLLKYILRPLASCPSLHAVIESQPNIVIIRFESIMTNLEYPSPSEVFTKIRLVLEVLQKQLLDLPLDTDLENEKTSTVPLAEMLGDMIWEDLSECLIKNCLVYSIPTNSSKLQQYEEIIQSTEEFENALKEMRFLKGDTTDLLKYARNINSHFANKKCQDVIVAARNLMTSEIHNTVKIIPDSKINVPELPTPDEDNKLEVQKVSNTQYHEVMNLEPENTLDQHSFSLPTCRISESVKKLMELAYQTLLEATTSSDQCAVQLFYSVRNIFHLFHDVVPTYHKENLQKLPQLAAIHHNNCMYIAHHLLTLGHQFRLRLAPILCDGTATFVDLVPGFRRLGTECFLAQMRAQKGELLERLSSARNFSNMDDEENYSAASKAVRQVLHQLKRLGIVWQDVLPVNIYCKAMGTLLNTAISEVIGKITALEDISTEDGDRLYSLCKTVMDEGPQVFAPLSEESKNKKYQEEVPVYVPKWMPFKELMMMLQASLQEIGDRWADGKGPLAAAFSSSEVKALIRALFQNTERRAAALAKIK
T2 sequence (Q96EA4 whole entry, chain 4 of 4): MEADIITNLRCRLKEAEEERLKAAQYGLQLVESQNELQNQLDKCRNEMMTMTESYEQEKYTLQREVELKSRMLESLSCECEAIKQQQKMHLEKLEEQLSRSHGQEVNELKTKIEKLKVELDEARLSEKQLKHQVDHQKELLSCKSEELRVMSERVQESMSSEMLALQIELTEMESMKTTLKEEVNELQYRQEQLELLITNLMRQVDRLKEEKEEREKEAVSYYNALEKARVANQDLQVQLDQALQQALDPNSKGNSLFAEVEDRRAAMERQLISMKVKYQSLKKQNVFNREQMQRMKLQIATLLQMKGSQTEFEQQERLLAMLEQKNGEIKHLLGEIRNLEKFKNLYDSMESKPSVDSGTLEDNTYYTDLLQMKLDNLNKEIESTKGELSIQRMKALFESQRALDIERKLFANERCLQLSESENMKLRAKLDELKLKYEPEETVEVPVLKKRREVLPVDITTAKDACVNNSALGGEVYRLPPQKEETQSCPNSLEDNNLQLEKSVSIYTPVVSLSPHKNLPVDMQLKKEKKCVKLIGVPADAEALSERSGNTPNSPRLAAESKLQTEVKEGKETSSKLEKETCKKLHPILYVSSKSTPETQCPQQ
T1 sequence (P50748 whole entry, chain 1 of 4): as the sequence (P50748 whole entry, chain 1 of 4) above
T1 sequence (Q9H900 whole entry, chain 2 of 4): as the sequence (Q9H900 whole entry, chain 2 of 4) above
T1 sequence (O43264 whole entry, chain 3 of 4): as the sequence (O43264 whole entry, chain 3 of 4) above
T1 sequence (Q96EA4 whole entry, chain 4 of 4): as the sequence (Q96EA4 whole entry, chain 4 of 4) above

B1: EGFP‐CENP‐E^2070C (domain or fragment, human, UniProt Q02224 2070-2701, looked up)
chain: RQNHQVKPEKRLLSDGQQHLTESLREKCSRIKELLKRYSEMDDHYECLNRLSLDLEKEIEFQKELSMRVKANLSLPYLQTKHIEKLFTANQRCSMEFHRIMKKLKYVLSYVTKIKEEQHESINKFEMDFIDEVEKQKELLIKIQHLQQDCDVPSRELRDLKLNQNMDLHIEEILKDFSESEFPSIKTEFQQVLSNRKEMTQFLEEWLNTRFDIEKLKNGIQKENDRICQVNNFFNNRIIAIMNESTEFEERSATISKEWEQDLKSLKEKNEKLFKNYQTLKTSLASGAQVNPTTQDNKNPHVTSRATQLTTEKIRELENSLHEAKESAMHKESKIIKMQKELEVTNDIIAKLQAKVHESNKCLEKTKETIQVLQDKVALGAKPYKEEIEDLKMKLVKIDLEKMKNAKEFEKEISATKATVEYQKEVIRLLRENLRRSQQAQDTSVISEHTDPQPSNKPLTCGGGSGIVQNTKALILKSEHIRLEKEISKLKQQNEQLIKQKNELLSNNQHLSNEVKTWKERTLKREAHKQVTCENSPKSPKVTGTASKKKQITPSQCKERNLQDPVPKESPKSCFFDSRSKSLPSPHPVRYFDNSSLGLCPEVQNAGAESVDSQPGPWHASSGKDVPECKTQ
notes: codon-optimised cDNA; The His6-EGFP tag is PreScission-cleavable, but no cleavage step is described; source: insect cells (biGBac; baculovirus from Sf9, expression in Tnao38), purified (HisTrap, Superdex 200); not shown: EGFP, N-terminal, kept
As for B1, the binding result in assay [1] and in assay [2] was “binds” in each case.

B2: EGFP‐CENP‐E^2366C (domain or fragment, human, UniProt Q02224 2366-2701, looked up)
chain: NKNPHVTSRATQLTTEKIRELENSLHEAKESAMHKESKIIKMQKELEVTNDIIAKLQAKVHESNKCLEKTKETIQVLQDKVALGAKPYKEEIEDLKMKLVKIDLEKMKNAKEFEKEISATKATVEYQKEVIRLLRENLRRSQQAQDTSVISEHTDPQPSNKPLTCGGGSGIVQNTKALILKSEHIRLEKEISKLKQQNEQLIKQKNELLSNNQHLSNEVKTWKERTLKREAHKQVTCENSPKSPKVTGTASKKKQITPSQCKERNLQDPVPKESPKSCFFDSRSKSLPSPHPVRYFDNSSLGLCPEVQNAGAESVDSQPGPWHASSGKDVPECKTQ
notes: source: E. coli BL21 (DE3) RP plus, purified (HisTrap FF, Superose 6); not shown: EGFP, N-terminal, kept
For B2, in assay [2], the binding result is recorded as “binds”.
